Measured values published in US20240190999A1 (Molecular Partners, published 2024).

Assays:
[1] = target: T1, human 4-1BB on transfected HT1080 NF-kB-luciferase reporter cells (human, UniProt Q07011 24-255); test: cell-based or functional assay
[2] = target: T1, human 4-1BB on transfected HT1080 …; test: cell-based or functional assay; remark: listed apart in the source
[3] = target: T2, human fibroblast activation protein (hFAP) (human, UniProt Q12884 26-760, limits assumed); test: SPR (ProteOn XPR36); end of the group's range, tied to #44 by Table 15
T2 construct: Recombinant soluble protein; also called human FAP; rhFAP
T2 sequence (Q12884 26-760 limits assumed): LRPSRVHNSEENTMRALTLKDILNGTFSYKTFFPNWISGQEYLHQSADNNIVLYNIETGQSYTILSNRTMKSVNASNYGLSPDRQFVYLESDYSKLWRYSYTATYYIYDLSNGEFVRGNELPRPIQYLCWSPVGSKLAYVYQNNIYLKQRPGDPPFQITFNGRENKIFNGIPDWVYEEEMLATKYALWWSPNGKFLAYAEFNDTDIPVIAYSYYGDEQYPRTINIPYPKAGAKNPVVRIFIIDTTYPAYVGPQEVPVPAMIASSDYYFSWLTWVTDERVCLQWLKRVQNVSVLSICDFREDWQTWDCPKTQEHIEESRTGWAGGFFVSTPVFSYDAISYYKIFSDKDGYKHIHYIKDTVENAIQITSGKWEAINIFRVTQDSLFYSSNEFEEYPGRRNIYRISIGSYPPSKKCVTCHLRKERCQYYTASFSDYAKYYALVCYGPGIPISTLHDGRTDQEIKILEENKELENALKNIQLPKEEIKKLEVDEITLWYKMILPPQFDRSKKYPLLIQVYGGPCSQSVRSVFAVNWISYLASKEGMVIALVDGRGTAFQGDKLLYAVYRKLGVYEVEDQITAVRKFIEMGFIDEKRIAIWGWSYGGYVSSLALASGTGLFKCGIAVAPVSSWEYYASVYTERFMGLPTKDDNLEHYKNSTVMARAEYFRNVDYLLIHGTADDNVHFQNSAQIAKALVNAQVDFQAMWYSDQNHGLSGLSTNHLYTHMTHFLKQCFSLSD
Experimental: (§1) Assay set-up: Briefly, SPR measurements were performed using a ProteOn XPR36 instrument (BioRad) as described above. Biotinylated human and cynomolgus 4-1BB and human FAP were immobilized either directly or indirectly via NeutrAvidin (˜6000 RU pre-coated) on a GLC chip to reach 600 RU, 700 RU and 2000 RU, respectively. The interaction of FAP-4-1BB bispecific constructs to the coated targets was measured by injecting the bispecific constructs in a serial dilution of 50, 16.7, 5.6, 1.9 and 0.6 nM with an association of 120 s and dissociation of 1800 s using a constant flow rate of 30 μl/min. Targets were regenerated between the individual measurements using 10 mM glycine pH 2 and 124 mM H₃PO₄. The signals were double referenced against the running buffer (PBST) treated control lane.

[4] = target: T2, human fibroblast activation protein …; test: SPR (ProteOn XPR36), hFAP immobilised on GLC chip, construct as analyte
Experimental: as §1

[5] = target: T1, human 4-1BB on transfected HT1080 …; test: cell-based or functional assay; remark: listed apart in the source
[6] = target: T3, biotinylated human 4-1BB (bio.h4-1BB) (human, UniProt Q07011 24-186, limits assumed, biotinylated (site not stated)); test: SPR (ProteOn XPR36), biotinylated h4-1BB immobilised on GLC chip, construct as analyte
T3 construct: also called CD137
T3 sequence (Q07011 24-186 limits assumed): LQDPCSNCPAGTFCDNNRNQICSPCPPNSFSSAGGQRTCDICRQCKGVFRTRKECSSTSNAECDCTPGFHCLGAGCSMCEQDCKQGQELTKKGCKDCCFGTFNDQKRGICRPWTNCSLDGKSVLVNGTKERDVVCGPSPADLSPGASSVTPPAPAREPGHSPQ
Experimental: as §1

[7] = target: T4, human 4-1BB on primary human CD8 T cells (human, UniProt Q07011 24-255); test: cell-based or functional assay
T4 sequence (Q07011 24-255 limits assumed): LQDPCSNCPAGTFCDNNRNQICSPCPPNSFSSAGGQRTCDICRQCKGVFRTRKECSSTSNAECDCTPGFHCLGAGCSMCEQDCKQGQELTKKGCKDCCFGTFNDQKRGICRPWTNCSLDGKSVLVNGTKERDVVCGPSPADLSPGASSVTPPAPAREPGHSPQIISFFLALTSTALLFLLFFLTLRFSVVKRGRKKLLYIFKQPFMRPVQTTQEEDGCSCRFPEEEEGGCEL

[8] = target: T4, human 4-1BB on primary human CD8 T cells; test: cell-based or functional assay; remark: listed apart in the source
[9] = target: T2, human fibroblast activation protein …; test: SPR (ProteOn XPR36); end of the group's range, tied to #47 by Table 15
Experimental: as §1

[10] = target: T3, biotinylated human 4-1BB (bio.h4-1BB); test: SPR (ProteOn XPR36); end of the group's range, tied to #45 by Table 15
Experimental: as §1

[11] = target: T3, biotinylated human 4-1BB (bio.h4-1BB); test: SPR (ProteOn XPR36); end of the group's range, tied to #48 by Table 15
Experimental: as §1

T1 sequence (Q07011 24-255 limits assumed): as above

Row | Binder | EC50, 4-1BB activation in HT1080 reporter cells in presence of FAP-expressing CHO cells (Population 2) [1] [nM] | EC50, 4-1BB activation in HT1080 reporter cells in presence of FAP-expressing CHO cells (Population 1) [2] [nM] | Kd [3] [nM] | Kd [4] [nM] | EC50, 4-1BB activation in HT1080 reporter cells in presence of FAP-beads [5] [nM] | Kd [6] [nM] | EC50, IFNγ secretion of human CD8 T cells (plate-coated hFAP) [7] [nM] | EC50, IFNγ production by primary human CD8 T cells (anti-CD3 plus plate-coated hFAP) [8] [nM] | Kd [9] [nM] | Kd [10] [nM] | Kd [11] [nM]
1 | His-MpA (His-tagged version of MpA) (designed binder) GSDLGKKLLEAARAGQDDEVRELLKAGADVNAKDYFSHTPLHLAARNGHLKIVEVLLKAGADVNAKDFAGKTPLHLAAADGHLEIVEVLLKAGADVNAQDIFGKTPADIAADAGHEDIAEVLQKAAGSPTPTPTTPTPTPTTPTPTPTGSDLGKKLLEAARAGQDDEVRELLKAGADVNAKDVLGWTPLHLAAFEGHLEIVEVLLKAGADVNAKDKKGWTPLQLAARTGHLEIVEVLLKAGADVNAKDHIGATPLHLAAWQGHPEIVEVLLKAGADVNAQDKSGKTPADLAADAGHEDIAEVLQKAAGSPTPTPTTPTPTPTTPTPTPTGSDLGQKLLKAAQEGQDDEVRELLKAGADVNAKDLRGITPLHVAAWQGHLEIVEVLLKAGADVNAKDSKGETPLHLAAFRGHLEIVEVLLKAGADVNAQDQQGETPADLAALAGHVDIAEVLQKAAGSPTPTPTTPTPTPTTPTPTPTGSDLGQKLLKAAQEGQDDEVRELLKAGADVNAKDLRGITPLHVAAWQGHLEIVEVLLKAGADVNAKDSKGETPLHLAAFRGHLEIVEVLLKAGADVNAQDQQGETPADLAALAGHVDIAEVLQKAAGSPTPTPTTPTPTPTTPTPTPTGSDLGKKLLEAARAGQDDEVRELLKAGADVNAKDYFSHTPLHLAARNGHLKIVEVLLKAGADVNAKDFAGKTPLHLAAADGHLEIVEVLLKAGADVNAQDIFGKTPADIAADAGHEDIAEVLQKAA |  |  |  |  |  |  | 1 to 3 | 2.37 |  |  | 
2 | Multispecific binding protein B (MpB) (designed binder) MRGSHHHHHHGSDLGKKLLEAARAGQDDEVRELLKAGADVNAKDYFSHTPLHLAARNGHLKIVEVLLKAGADVNAKDFAGKTPLHLAAADGHLEIVEVLLKAGADVNAQDIFGKTPADIAADAGHEDIAEVLQKAAGSPTPTPTTPTPTPTTPTPTPTGSDLGEKLLVAALYGQDDEVRELLKAGADVNAKDQWGLTPLHKAALQGHLEIVEVLLKAGADVNAKDERGHTPLHWAARFGHLEIVEVLLKAGADVNAQDQKGYTPADLAALWGHEDIAEVLQKAAGSPTPTPTTPTPTPTTPTPTPTGSDLGQKLLKAAQEGQDDEVRELLKAGADVNAKDLRGITPLHVAAWQGHLEIVEVLLKAGADVNAKDSKGETPLHLAAFRGHLEIVEVLLKAGADVNAQDQQGETPADLAALAGHVDIAEVLQKAAGSPTPTPTTPTPTPTTPTPTPTGSDLGQKLLKAAQEGQDDEVRELLKAGADVNAKDLRGITPLHVAAWQGHLEIVEVLLKAGADVNAKDSKGETPLHLAAFRGHLEIVEVLLKAGADVNAQDQQGETPADLAALAGHVDIAEVLQKAAGSPTPTPTTPTPTPTTPTPTPTGSDLGKKLLEAARAGQDDEVRELLKAGADVNAKDYFSHTPLHLAARNGHLKIVEVLLKAGADVNAKDFAGKTPLHLAAADGHLEIVEVLLKAGADVNAQDIFGKTPADIAADAGHEDIAEVLQKAA |  |  |  |  |  |  | 1 to 2 | 1.54 |  |  | 
3 | bispecific construct #49 (designed binder, 56 is used; also called FAP-4-1BB bispecific construct #49) MRGSHHHHHHGSDLGEKLLVAALYGQDDEVRILLAAGADVNAKDQWGLTPLHKAALQGHLEIVEVLLKAGADVNAKDERGHTPLHWAARFGHLEIVEVLLKAGADVNAQDQKGYTPADLAALWGHEDIAEVLQKAAGSPTPTPTTPTPTPTTPTPTPTGSDLGKKLLVAANVGQDDEVRILLAAGADVNAKDYHGYTPLHHAATYGHLEIVEVLLKAGADVNAKDQTGLTPLHLAAAKGHLEIVEVLLKAGADVNAQDHHGYTPADLAAFVGHEDIAVVLQKLN | 1.04 | 0.91 |  | 0.17 | 6.52 | 0.86 |  |  |  |  | 
4 | bispecific construct #45 (designed binder, 56 is used; also called FAP-4-1BB bispecific construct #45) MRGSHHHHHHGSDLGEKLLVAALYGQDDEVRILLAAGADVNAKDQWGLTPLHKAALQGHLEIVEVLLKAGADVNAKDERGHTPLHWAARFGHLEIVEVLLKAGADVNAQDQKGYTPADLAALWGHEDIAEVLQKAAGSPTPTPTTPTPTPTTPTPTPTGSDLGDKLLHAAYYGQDDEVRILLAAGADVNAKDTQGLTPLHLAAAIGHLEIVEVLLKAGADVNAKDAYGETPLHLVASRGHLEIVEVLLKAGADVNAQDYSGRTPADLAAEYGHEDIAEVLQKLN | 0.39 | 0.67 |  | 0.33 | 5.15 | 1.47 |  |  |  | 0.4 to 1.5 | 

More lines, in order of falling Kd [4], values ahead:

Row | EC50, 4-1BB activation in HT1080 reporter cells in presence of FAP-expressing CHO cells (Population 2) [1] [nM] | EC50, 4-1BB activation in HT1080 reporter cells in presence of FAP-expressing CHO cells (Population 1) [2] [nM] | Kd [3] [nM] | Kd [4] [nM] | EC50, 4-1BB activation in HT1080 reporter cells in presence of FAP-beads [5] [nM] | Kd [6] [nM] | EC50, IFNγ secretion of human CD8 T cells (plate-coated hFAP) [7] [nM] | EC50, IFNγ production by primary human CD8 T cells (anti-CD3 plus plate-coated hFAP) [8] [nM] | Kd [9] [nM] | Kd [10] [nM] | Kd [11] [nM] | Binder
5 | 0.36 | 0.47 | 0.1 to 0.4 | 0.36 | 4.59 | 1.45 |  |  |  |  |  | bispecific construct #44 (designed binder, also called FAP-4-1BB bispecific construct #44) MRGSHHHHHHGSDLGEKLLVAALYGQDDEVRILLAAGADVNAKDQWGLTPLHKAALQGHLEIVEVLLKAGADVNAKDERGHTPLHWAARFGHLEIVEVLLKAGADVNAQDQKGYTPADLAALWGHEDIAEVLQKAAGSPTPTPTTPTPTPTTPTPTPTGSDLGQKLLKAAQEGQDDEVRELLKAGADVNAKDLRGITPLHVAAWQGHLEIVEVLLKAGADVNAKDSKGETPLHLAAFRGHLEIVEVLLKAGADVNAQDQQGETPADLAALAGHVDIAEVLQKLN
6 | 0.37 | 0.73 |  | 0.27 | 5.85 | 1.15 |  |  |  |  |  | bispecific construct #46 (designed binder, 56 is used; also called FAP-4-1BB bispecific construct #46) MRGSHHHHHHGSDLGEKLLVAALYGQDDEVRILLAAGADVNAKDQWGLTPLHKAALQGHLEIVEVLLKAGADVNAKDERGHTPLHWAARFGHLEIVEVLLKAGADVNAQDQKGYTPADLAALWGHEDIAEVLQKAAGSPTPTPTTPTPTPTTPTPTPTGSDLGRKLLQAAQLGQDDEVRELLKAGADVNAKDSRGITPLHVAAWQGHLEIVEVLLKASADVNAKDHAGITPLHLAAFLGHLEIVEVLLKAGADVNAQDQEGRTPADLAALQGHEDIAKVLQKLN
7 | 0.16 | 0.28 |  | 0.17 | 3.71 | 0.44 |  |  |  |  | 0.4 to 1.5 | bispecific construct #48 (designed binder, 56 is used; also called FAP-4-1BB bispecific construct #48) MRGSHHHHHHGSDLGEKLLVAALYGQDDEVRILLAAGADVNAKDQWGLTPLHKAALQGHLEIVEVLLKAGADVNAKDERGHTPLHWAARFGHLEIVEVLLKAGADVNAQDQKGYTPADLAALWGHEDIAEVLQKAAGSPTPTPTTPTPTPTTPTPTPTGSDLGKKLLEAARAGQDDEVRELLKAGADVNAKDQEHGSTPLHLAANYGHLEIVEVLLKAGADVNAKNWWGNTPLHLAAVYGHLEIVEVLLKAGADVNAKDNHGHTPLHLAAWYGHLEIVEVLLKAGADVNAQDKSGKTPADLAADAGHEDIAEVLQKAA
8 | 0.18 | 0.36 |  | 0.07 | 6.19 | 0.77 |  |  | 0.1 to 0.4 |  |  | bispecific construct #47 (designed binder, 56 is used; also called FAP-4-1BB bispecific construct #47) MRGSHHHHHHGSDLGEKLLVAALYGQDDEVRILLAAGADVNAKDQWGLTPLHKAALQGHLEIVEVLLKAGADVNAKDERGHTPLHWAARFGHLEIVEVLLKAGADVNAQDQKGYTPADLAALWGHEDIAEVLQKAAGSPTPTPTTPTPTPTTPTPTPTGSDLGKKLLEAARAGQDDEVRELLKAGADVNAKDTYGETPLHLAAWKGHLEIVEVLLKAGADVNAKDSIGITPLHVAAHHGHLEIVEVLLKAGADVNAKDKWGRTPLHLAALLGHLEIAEVLLKAGADVNAQDKSGKTPADLAADAGHDDIAEVLQKLN
